According to US20250092373A1, “CRISPR-MEDIATED DELETION OF FLI1 IN NK CELLS” (The Regents of the University of California, priority 2022, published 2025):

Assays:
STAT5 = test: Fli1 protein by western blot in IL-15-stimulated splenic NK cells with STAT5 inhibitor or vehicle; format: cell-based, mouse; details: 100 μM inhibitor vs vehicle control (DMSO)
Method: (§1) For plate-bound antibody stimulation experiments, ˜5×10^5 isolated NK cells were stimulated with […] precoated antibody against NK1.1 (PK136) for 4 hours in complete media containing Brefeldin A (1:1000; BioLegend) and Monensin (2 uM; BioLegend). Cells were cultured in media alone as a negative control. In cytokine stimulation experiments, isolated NK cells were incubated with various concentrations of mouse IL-15 or IL-2, in the presence or absence of 100 μM CAS 285986-31-4 STAT5 inhibitor (Millipore Sigma).
(§2) Protein was extracted from enriched primary splenic NK cells using Pierce RIPA buffer (Thermo-Fisher) with Halt protease inhibitor cocktail (Thermo-Fisher) and protein concentration was quantified using the Pierce BCA Protein Assay kit (Thermo-Fisher). Samples were electrophoresed on NuPage Novex 4-12% Bis-Tris Protein Gels, transferred to PVDF membranes, and blocked for one hour at room temperature with 5% w/v nonfat milk in 1× TBS and 0.1% Tween-20. Immunoblots were performed using rabbit anti-Fli1 (Abcam ab133485), rabbit anti-β-actin (Cell Signaling CST4970), and rabbit anti-GAPDH (Millipore Sigma G9545). Proteins were detected using the SuperSignal West Pico PLUS ECL kit (Thermo-Fisher) and visualized using the Azure Biosystems c280 imager. Band density was quantified using ImageJ version 1.53.

splenic NK cells [1] = details: 3 hours after cytokine stimulation ex vivo; published RNA-seq datasets (GSE140044); cited from earlier work
splenic NK cells [2] = test: Fli1 protein by immunoblot of purified splenic NK cells cultured with IL-2 or IL-15; format: cell-based, mouse; details: for Fli1 protein induction: 48 h culture with increasing doses of cytokine
Method: as §1, §2

Molecule | reduction of Fli1 protein (STAT5) [%] | Fli1 transcripts (splenic NK cells [1]) | Fli1 protein induction (splenic NK cells [2]) | Fli1 protein induced, IL-15 compared with IL-2 (splenic NK cells [2]; 48 h culture, at each dose)
O=C(N/N=C/c1coc2ccccc2c1=O)c1cccnc1 [STAT5 inhibitor] | ~50 | – | – | –
IL-18: cytokine used to stimulate NK cells ex vivo | – | decreased Fli1 expression | – | –
IL-2: mouse IL-2 cytokine used to stimulate splenic NK cells (protein, UniProt P04351 21-169, looked up) Interleukin-2: APTSSSTSSSTAEAQQQQQQQQQQQQHLEQLLMDLQELLSRMENYRNLKLPRMLTFKFYLPKQATELKDLQCLEDELGPLRHVLDLTQSKSFQLEDAENFISNIRVTVVKLKGSDNTFECQFDDESATVVDFLRRWIAFCQSIISTSPQ | – | induced Fli1 transcripts | induced by both IL-2 and IL-15 in a dose-dependent manner | –
IL-12: cytokine used to stimulate NK cells ex vivo (protein, UniProt P29459 23-219; P29460 23-328, looked up) Interleukin-12 subunit alpha: RNLPVATPDPGMFPCLHHSQNLLRAVSNMLQKARQTLEFYPCTSEEIDHEDITKDKTSTVEACLPLELTKNESCLNSRETSFITNGSCLASRKTSFMMALCLSSIYEDLKMYQVEFKTMNAKLLMDPKRQIFLDQNMLAVIDELMQALNFNSETVPQKSSLEEPDFYKTKIKLCILLHAFRIRAVTIDRVMSYLNAS Interleukin-12 subunit beta: IWELKKDVYVVELDWYPDAPGEMVVLTCDTPEEDGITWTLDQSSEVLGSGKTLTIQVKEFGDAGQYTCHKGGEVLSHSLLLLHKKEDGIWSTDILKDQKEPKNKTFLRCEAKNYSGRFTCWWLTTISTDLTFSVKSSRGSSDPQGVTCGAATLSAERVRGDNKEYEYSVECQEDSACPAAEESLPIEVMVDAVHKLKYENYTSSFFIRDIIKPDPPKNLQLKPLKNSRQVEVSWEYPDTWSTPHSYFSLTFCVQVQGKSKREKKDRVFTDKTSATVICRKNASISVRAQDRYYSSSWSEWASVPCS | – | decreased Fli1 expression | – | –
IL-15: mouse IL-15 cytokine used to stimulate splenic NK cells (protein, UniProt P48346 49-162, looked up) Interleukin-15: NWIDVRYDLEKIESLIQSIHIDTTLYTDSDFHPSCKVTAMNCFLLELQVILHEYSNMTLNETVRNVLYLANSTLSSNKNVAESGCKECEELEEKTFTEFLQSFIRIVQMFINTS | – | induced Fli1 transcripts | induced by both IL-2 and IL-15 in a dose-dependent manner | more Fli1 protein than IL-2 at each dose
